In experiment [1] the target is T1, human CXCR3 (human, UniProt P49682 1-368).
T1 construct: whole, on cells; also called hu-CXCR3; C-X-C chemokine receptor 3
T1 sequence (looked up): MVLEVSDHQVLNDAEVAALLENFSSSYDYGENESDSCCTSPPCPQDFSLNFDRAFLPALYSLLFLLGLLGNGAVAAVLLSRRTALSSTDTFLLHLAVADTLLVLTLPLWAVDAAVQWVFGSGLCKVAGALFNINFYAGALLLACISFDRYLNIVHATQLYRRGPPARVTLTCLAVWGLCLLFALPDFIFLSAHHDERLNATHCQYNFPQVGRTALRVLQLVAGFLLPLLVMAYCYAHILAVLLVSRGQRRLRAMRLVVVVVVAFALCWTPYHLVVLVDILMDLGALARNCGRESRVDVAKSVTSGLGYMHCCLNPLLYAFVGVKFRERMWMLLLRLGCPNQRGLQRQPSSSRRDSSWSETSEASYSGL
Put plainly: flow cytometry, antibody titration on CHO-CXCR3 cells. The protocol:
In this example, CHO-CXCR3 cells were lifted from culture flasks using non-enzymatic Cell Dissociation Buffer-PBS based (Life Technologies #13151-014). Cells were resuspended in FACS Buffer (2% Fetal Bovine Serum in PBS) at 1×10⁶ cells/ml and 50 μl (0.5×10⁵ cells) were aliquoted into the wells of a 96-well plate. Plated cells were spun down and the supernatant discarded. Cells were resuspended in 30 μl FACS Buffer containing serially diluted concentrations of antibody in triplicate. Plates were incubated for 1 hr at 4° C. and then washed twice with FACS Buffer. Cells were resuspended in 50 μl goat anti-human IgG (γ-chain specific)-PE conjugated secondary antibody (Southern Biotech #2040-09) diluted 1:500 in FACS Buffer. Cells were further incubated for 30 min at 4° C. and then washed 1× with FACS Buffer. The cells were resuspended in a final volume of 30 μl FACS Buffer and analyzed using the Intellicyt Flow Cytometer. Median fluorescence in the FL-2H channel was determined using FlowJo software and EC₅₀ value was determined by plotting the data in GraphPad Prism and analyzing using a variable slope non-linear regression.
In general terms: Flow cytometry measures light scatter and fluorescence of single cells or particles in a stream.

Experiment [2] deals with T1, human CXCR3. Put plainly: cell-based or functional assay.
Experiment [3] addresses T1, human CXCR3. Put plainly: cell-based or functional assay. The source holds these as a separate data set.
The next experiment deals with T2, murine CXCR3 (murine, UniProt O88410 1-367).
T2 construct: whole, on cells; target is the endogenous receptor on B16-F10 cells; also called mur CXCR3
T2 sequence (looked up): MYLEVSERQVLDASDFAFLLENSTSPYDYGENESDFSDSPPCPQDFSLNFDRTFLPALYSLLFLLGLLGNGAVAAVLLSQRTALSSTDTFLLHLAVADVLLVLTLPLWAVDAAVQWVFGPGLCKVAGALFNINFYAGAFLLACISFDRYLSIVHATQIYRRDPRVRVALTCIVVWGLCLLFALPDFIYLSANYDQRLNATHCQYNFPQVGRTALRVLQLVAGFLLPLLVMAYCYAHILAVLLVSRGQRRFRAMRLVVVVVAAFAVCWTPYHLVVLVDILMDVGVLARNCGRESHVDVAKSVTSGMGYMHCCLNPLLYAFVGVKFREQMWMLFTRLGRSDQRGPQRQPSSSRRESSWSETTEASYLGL
Nature of the experiment: flow cytometry, antibody titration on murine B16-F10 cells. The protocol:
In this example, murine B16-F10 cells (ATCC, #CRL-6475) were lifted from culture flasks using non-enzymatic Cell Dissociation Buffer-PBS based (Life Technologies #13151-014). Cells were harvested, washed and resuspended in FACS Buffer (2% Fetal Bovine Serum in PBS) at 1×10⁶ cells/ml and 50 μl (0.5×10⁵ cells) were aliquoted into the wells of a 96-well plate. Plated cells were spun down and the supernatant discarded. Cells were resuspended in 30 μl FACS Buffer serially diluted concentrations of antibody in triplicate. Plates were incubated for 1 hr at 4° C. and then washed 2× with FACS Buffer. Cells were resuspended in 50 μl goat anti-human IgG (γ-chain specific)-PE conjugated secondary antibody (Southern Biotech #2040-09) diluted 1:500 in FACS Buffer. Cells were further incubated for 30 min at 4° C. and then washed 1× with FACS Buffer. The cells were resuspended in a final volume of 30 μl FACS Buffer and analyzed using the Intellicyt Flow Cytometer. Median fluorescence in the FL-2H channel was determined using FlowJo software and the EC₅₀ value was determined by plotting the data in GraphPad Prism and analyzing using a variable slope non-linear regression.

Residue numbers refer to the chain shown, from its start.

Experimental findings from patent US20190008955A1 (SORRENTO THERAPEUTICS, published 2019) are described below.

As usually defined, the EC50 is the midpoint of the concentration-response curve. High values mean a need for much substance, low ones an effect from little substance.

B1: 3A11 (antibody, V domains shown)
VH: QVQLVQSGGGLVKPGGSLRLSCAASGFTFTSSGMNWVRQAPGKGLEWVAYIFPNGKTLYPESVKGRFIITRDNAEKSLFLEMNNLRAEDMGVYYCAIDLNWGSGYWGQGTLVTVSS
VL: SYVLTQPPSVSKGLRQTATLTCTGNINNVGNVGATWLQQHQGHPPKLLSDRNNNRPSGISERFSASRSGNAASLTITGLQPEDEADYYCSAWDTSLGAWVFGGGTKLTVL
notes: Fully human IgG class
Molecule B1 registered an EC50 in the experiment with human CXCR3 [1] of 1.2 nM.

B2: 32D12 (antibody, V domains shown)
VH: EVQLLESGGGLVQPGGSQRLSCAASGFTFSSYPMTWVRQAPGKGLEWVSAISDGGSGTYYADSVKGRFTISRDNSKNTLYLQMNSLRAEDTAIYYCARYKMGGSYRGLDDWGQGTLVTVSS
VL: LPVLTQPASVSGSPGQPITISCTGTSGNIGSYNYVSWYQQHPGKAPRLLIYDVSLRPSGISSHFSGSKSGNTASLTISGLQAEDEAEYFCLSWTSDKTYVFGSGTKLTVL
notes: Fully human IgG class
With B2, the “IC50 [nM] in a calcium flux assay using CHO-CXCR3 cells, ligand CXCL11 (60 nM)” value in the experiment with human CXCR3 [2] came to 19 nM. In addition, in the experiment with human CXCR3 [3], the “IC50 [nM] in a chemotaxis assay using activated T cells, ligand CXCL9 (30 nM)” value came out at 2.5 nM; the “IC50 [nM] in a chemotaxis assay using activated T cells, ligand CXCL10 (12.5 nM)” value stood at 0.03 nM; the “IC50 [nM] in a chemotaxis assay using activated T cells, ligand CXCL11 (0.3 nM)” value was determined as 3.4 nM. In the experiment with human CXCR3 [1], this molecule displayed an EC50 of 4 nM.

B3: 2A3 (antibody, V domains shown)
VH: QVQLVQSGAEVKKPGSSVKVACKASGGTFSHSAISWVRQAPGQGLEWIGRTIPTLEMASYAQKFQGRVTISADKSTRTGYMELRDLRSEDTAVYYCSTQTPSYTDHWGQGTLVTVSS
VL: DIVMTQTPLSLPVTLGQPASISCRSSQSLVHSDGNTYLNWFQQRPGQSPRRLIYKVSNRDSGVPDRFSGSGSGTDFTLKISRVEAEDVGVYYCMQGTHWPLTFGGGTKVEIK
notes: Fully human IgG class
For the molecule B3, in the experiment with human CXCR3 [1], a half-maximal response (EC50) required 11 nM.

B4: 3A3 (antibody, V domains shown)
VH: QVQLVQSGAEVKKPGSSVKVSCKASGGTFNRYAFSWVRQAPGQGPELMGRIMPMFDIASYAQKFQGRLTITADKSTSTAYMELSSLRSDDTAVYYCTQVSGDSDYWGPGTLVTVSS
VL: B3 VL with S32N, Q42H, S61F, K79R, T97S
notes: Fully human IgG class
The molecule B4 registered an EC50 with human CXCR3 [1] of 0.5 nM. This EC50 is about 22-fold lower than that of the molecule before.

B5: F7 (antibody, V domains shown)
VH: B3 VH
VL: B3 VL with S26N, N39Y, S81N, L101N, G105Q, V109L
notes: Fully human IgG class; 31
In the experiment with human CXCR3 [1], B5 came in with a concentration for a half-maximal effect (EC50) of 5 nM.

B6: 32B12 (antibody, V domains shown)
VH: EVQLVQSGGGLVKSGRSLRLSCTVSGFTFGNSAMSWFRQAPGKGLEWVSSISSSSSYIYYADSVKGRFTISRDNAKNSLYLQMNSLRAEDTAVYYCARDLSGRGYSYLNYWGQGTLVTVSS
VL: SYELTQPPSVSAAPGQKVTISCSGSSSNIGNSYVSWFQQFPGTAPKLVIYENNKRPSGIPDRFSGSKSGTSATLGITGLQTGDEADYYCGTWDSSLSGRVFGGGTKLTVL
notes: Described as a fully human antibody of an IgG class and detected with anti-human IgG (gamma-chain specific); also called anti-CXCR3 antibody 32B12; clone 32B12
Turning to B6, in the experiment with human CXCR3 [2], the “IC50 [nM] in a calcium flux assay using CHO-CXCR3 cells, ligand CXCL9 (200 nM)” value is 37 nM; the “IC50 [nM] in a calcium flux assay using CHO-CXCR3 cells, ligand CXCL10 (164 nM)” value is 7 nM; the “IC50 [nM] in a calcium flux assay using CHO-CXCR3 cells, ligand CXCL11 (60 nM)” value was 16 nM. In the experiment with human CXCR3 [3], the “IC50 [nM] in a chemotaxis assay using activated T cells, ligand CXCL9 (30 nM)” value came to 0.6 nM; the “IC50 [nM] in a chemotaxis assay using activated T cells, ligand CXCL10 (12.5 nM)” value amounted to 0.2 nM; the “IC50 [nM] in a chemotaxis assay using activated T cells, ligand CXCL11 (0.3 nM)” value worked out at 0.3 nM. A half-maximal response with human CXCR3 [1] (EC50) required 1 nM. Further, it took 25 nM to reach a half-maximal effect in the experiment with murine CXCR3 (EC50).

B7: 3C11 (antibody, V domains shown)
VH: EVQLVESGGGLVQPGGSLRLSCSASGFTFSSYAMHWVRQAPGKGLEYVSAISSNGGSTYYADSVKGRFTISRDNSKNTLYLQMSSLRAEDTAVYYCVKSIAAAGTQYYYYYMDVWGKGTTVTVSS
VL: DIQLTQSPSSLSASVGDRVTITCRASQGIGTYLAWFQQKPGKVPKPLIYAASTLQSGVPSRFSGSGSGADFTLTISSLQPEDVATYYCQKYNSVPQTFGQGTKVEIK
notes: Fully human IgG class
Regarding B7, in the experiment with human CXCR3 [1], the EC50 worked out at 0.6 nM.
